Nine molecules from paper PMC9972897 (Science immunology, 2023) can be followed below.

Read-outs that look alike come from different tables or passages of the source.

The target of assay [1] is T1, SARS-CoV-2 S (ancestral), C-terminally truncated, expressed on 293T cells (SARS-CoV-2 (ancestral, Wuhan-Hu-1), UniProt P0DTC2). Put plainly: cell-based or functional assay.
The target in assay [2] is SD1-RBD of SARS-CoV-2 S (ancestral), aa 319-591 (SARS-CoV-2, ancestral (Wuhan-Hu-1; …, UniProt P0DTC2). Nature of the assay: SPR. As to conditions: both partners purified.
Assay [3] addresses T1, SARS-CoV-2 S (ancestral), C-terminally …. Nature of the assay: flow cytometry on cells. As to conditions: one partner purified. (In flow cytometry, cells or beads pass a laser one at a time.)
Assay [4] concerns the target T2, SARS-CoV-2 fusion peptide (FP) coldspot peptide, 812-831 (SARS-CoV-2 (ancestral), biotin-Ahx at the N-terminus; C-terminal amidation).
For assay [5], the target named is SARS-CoV-2 S-2P ectodomain trimer (ancestral) (SARS-CoV-2 (ancestral, MN908947), stabilised).
In assay [6] the target is T2, SARS-CoV-2 fusion peptide (FP) coldspot …. Put plainly: crystal structure. As to conditions: both partners purified.

B1: sd1.040 monoclonal antibody (IgG) (antibody, V domains shown)
VH: QVQLVQSGAEVKKPGASVKVSCKASGYTFTSFYIHWVRQAPGQGLEWMGIIDPSGGSTSYPQKFQGRVTMTRDTSTSTVYMDLSSLRSEDTAVYYCTRDGSAGDNSWFDPWGQGTLVTVSS
VL: not shown
As for B1, the “IC50 of neutralisation of SARS-CoV-2 pseudovirus” value (from here on “IC50”) in assay [1] amounted to 0.245 µg/mL.

B2: sd1.040 Fab (Fab, V domains shown)
VH: QVQLVQSGAEVKKPGASVKVSCKASGYTFTSFYIHWVRQAPGQGLEWMGIIDPSGGSTSYPQKFQGRVTMTRDTSTSTVYMDLSSLRSEDTAVYYCTRDGSAGDNSWFDPWGQGTLVTVSS
VL: not shown
One may read the Kd as the constant that tells how readily two partners part at equilibrium. With B2, binding in assay [2] was characterised by a dissociation constant (Kd) of 4.2 nM.

B3: hr2.023 monoclonal antibody (IgG) (antibody, V domains shown)
VH: QVQLVQSGAEVKKPGASVKVSCRASENIFSDSYLHWVRQAPGQGLEWMGIITPSGDKTFYAQQFQGRLTMTRDTPTNTLHMDLRGLTSADTAIYYCARQATKGGWDYWGQGTLVTVSS
VL: EIVLTQSPGTLSLSPGESATLSCRASQSVTRNYLAWYQQQPGQAPRLLIYGASNRATGVPDRFSGSGSGTDFTLTISRLEPEDFAVYYCQQYGSSPPTFIFGPGTKVDIK
For the molecule B3, the “fold increase of binding (gMFI) with soluble ACE2” value (“fold increase of binding (gMFI)” for short) in assay [3] was determined as 2.4 fold.

B4: hr2.016 monoclonal antibody (IgG) (antibody, V domains shown)
VH: EVQLLESGGGLVQPGGSLRLSCAASGFMFSKYAMTWVRQTPGKGLEWVSVISGGGGSTYYADSVKGRFTISRDNSKNTLYLQMNSLRAEDTAVYYCAKLLVVFVIDYWGQGALVTVSS
VL: EIVLTQSPGTLSLSPGERATLFCRASQSVSSNLAWYQQKPGRAPRLLISGASSRATGIPDRFSGSGSGTDFTLTISRLEPEDFAVYYCQQYGSSPPTFGQGTKVEIK
Consider B4, for which, in assay [1], the “IC50” value amounted to 0.01 µg/mL. Also, the “fold increase of binding (gMFI)” value in assay [3] was determined as 2.3 fold.

B5: fp.008 (antibody, V domains shown)
VH: VQLVESGGGVVQPGRSLRLSCRASGFRFNNYAMHWVRQAPGKGLEWVAIISYEARNEKYAASVKGRFSISRDNAKNTLYLQMNSLRPEDTAIYYCARDVFLSDYDQSGYDVTRGGFDYWGQGTLVTVSS
VL: EIVMTQSPATLSVSPGESATLSCRASQSVSSSLAWYQHKFGQAPRLLIYGASTRATGIPDRFSGSGSGMEFTLTISSLQSEDVAIYYCQQYGDWPLVTFGGGTKVEIK
On to B5, for which the binding result in assay [4] and in assay [5] was “binds” each time.

B6: fp.009 (antibody, V domains shown)
VH: VQLVESGGGVVQPGTSLTLSCEASGFTFSNYAMHWVRQAPGKGLEWVAIISFDTRNKKFAGSVQGRFSISRDNAKNSIYLQMNNLRPEDTGIYYCARDVFLSDYDSRGFDRTRGGFDYWGQGTLVTVSS
VL: EIVMTQSPATLSVSPGEKATLSCRASESVGSSLAWYQQKLGQAPRLLIYGASTRATGIPARFSGSGSGAEFTLTISSLQSEDFAIYYCQQYGDWPLLTFGGGTKVEIK
For B6, the binding result in assay [4] and in assay [5] was “binds” in each case.

B7: fp.006 monoclonal antibody (IgG) (antibody, V domains shown)
VH: EVQLVESGGGVVQPGGSLRLSCAASGFNFNNYALHWVRQAPGKGLEWVAIISYEARNKKYGVSVMGRFSISRDNSKSIMYLEMNSLRVEDTGVYYCARDLFLSDYDRSGYDPTRGGFDHWGQGTLVTVSS
VL: EIVMTQSPATLSVSPGERATLSCRASQSVSSSLAWYQHRFGQAPRLLISGASTRATGIPGRFSGSGSGTEFTLTISSLQSEDVAVYYCQQYGDWPLVTFGGGTKVEIK
For the molecule B7, the “IC50” value in assay [1] was determined as 0.737 µg/mL. Also, the “fold increase of binding (gMFI)” value in assay [3] stood at 5.8 fold.

B8: fp.006 Fab (Fab, V domains shown)
VH: EVQLVESGGGVVQPGGSLRLSCAASGFNFNNYALHWVRQAPGKGLEWVAIISYEARNKKYGVSVMGRFSISRDNSKSIMYLEMNSLRVEDTGVYYCARDLFLSDYDRSGYDPTRGGFDHWGQGTLVTVSS
VL: EIVMTQSPATLSVSPGERATLSCRASQSVSSSLAWYQHRFGQAPRLLISGASTRATGIPGRFSGSGSGTEFTLTISSLQSEDVAVYYCQQYGDWPLVTFGGGTKVEIK
As to B8, the binding result in assay [6] is “binds”.

B9: fp.007 monoclonal antibody (IgG) (antibody, V domains shown)
VH: EVQLVESGGGLVKPGGSLRLSCAGTGFIFSDAWMTWVRQAPGKGLEWVGRIKSKADGGTTDYAAPVKGRFTISRDDSKNTLYLEINSLKTEDTAVYYCTTGRSRYCIGAVCYYFDHWGQGTLVTVSS
VL: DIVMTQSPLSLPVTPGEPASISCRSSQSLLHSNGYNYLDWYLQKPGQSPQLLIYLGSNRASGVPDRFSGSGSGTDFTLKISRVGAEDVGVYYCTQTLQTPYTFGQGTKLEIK
With B9, the binding result in assay [3] was “binds”.
